Measurements published in the DeepSol protein solubility set.

Assay: soluble on expression in E. coli; label from the status in PepcDB or PDB records

Sequence | soluble on expression in E. coli
MANEQVLTAEQVLEKASQYLVDEDIELVARAYEYARDAHSEQYRKSGEPYIIHPIQVAGVLVDLHMDPATVSAGFLHDVVEDTEITLEDIEREFNKEIAMLVDGVTKLGKIKYKSHEQQQAENHRKMFIAMAQDIRVILIKLADRLHNMRTLKHLPQEKQRRIANETLEIFAPLAHRLGISTIKWELEDTSLRYLNPQQYYRIVNLMKRKRAEREEYLDEVMTGIREKLDEVAIQPEISGRPKHIYSIYRKMALQNKQFNEIYDLLAVRVVVNSIKDCYAVLGIIHTCWKPMPGRFKDYIAMPKANLYQSLHTTVIGPKGDPLEVQIRTKEMHEIAEFGIAAHWAYKEGKTAETTGTLEKKLTWFRQILEWQNEASNAEEFMESLKIDLFSDMVFVFTPKGDVMELPLGSVPIDFAYRVYSEIGNKTIGAKVNGKMVTLDYKLKTGDIIEILTSKHSYGPSQDWVKLAQTSHAKNKIRQFFKKQRRDENIEKGRELVEKEVRSLEYEMKEVLAPDNLKRVAEKFNFANEEDMFAAVGYNGITASQIVTRLTDKFRKQREEEEIVEVKEVRKPMKIRKWDSGVKVSGADNLLIRLSKCCNPVPGDDIVGYITKGRGVSIHRRDCVNVHTEEAIERLLEVEWEGSPEKEIEYNVDIEISGYDRRGLLNEVLQAVTETKTYISAVSGRSDRNKMATINMSISIRNLQHLKKVVERIKRVPEIYAVRRMMH | not soluble
MAKSEEIIRERYKVMAPRIIKALNQRNFEAYFCETSEKAVECALSLIPQGASVAWGGSMTLEEIGLIQRLKEGNYQVIDRDTAKSQEERFSLMRQALLSDVYLASVNAMSEDGIMVNIDGRGNRISAIAFGPKTVILVVGMNKICRDLESARKRAHTYAAPNNALRLGLELPCTKTGCCFDCNKNNPSSICAQIVEMHSSIVPGRIKVILVGENLGL | soluble
MNAPVKFEYFKNPKNRELTAVELEAFAKELDQIKQEVLDDIGEKDAKYIRRVYSAVRYSSMLGRACLFAGWFPPAWILGTGLLGFSKIMENMELGHNVMHGQYDWMNDPKFNGQTYEWDTVGTADNWRQTHNYKHHTYTNIKGIDDDIGYGLLRLFPEQRWKPGFLLQPIYSIPFCMLFQWGVAIQNLEIGKLIYKRKTWKQFKQECKPTQKKIGKQLFKDYVFFPLIAGPAALPVFTGNLVANGIRNAWTFSIIFCGHFTKDVEVFPKTVLQNETRGHWYMRQIRGSSNLTGSEAFHILTGHLSHQIEHHLFPDVPARRYRQMAPKVEAVCKKYGLNYNNASLFKQYGQVLGRIVKYAFPFKKLEHHHHHH | soluble
MNYNNKILVSESGLSQKHLIHGDEELFQHELKTIFARNWLFLTHDSLIPAPGDYVTAKMGIDEVIVSRQNDGSIRAFLNVCRHRGKTLVSVEAGNAKGFVCSYHGWGFGSNGELQSVPFEKDLYGESLNKKCLGLKEVARVESFHGFIYGCFDQEAPPLMDYLGDAAWYLEPMFKHSGGLELVGPPGKVVIKANWKAPAENFVGDAYHVGWTHASSLRSGESIFSSLAGNAALPPEGAGLQMTSKYGSGMGVLWDGYSGVHSADLVPELMAFGGAKQERLNKEIGDVRARIYRSHLNCTVFPNNSMLTCSGVFKVWNPIDANTTEVWTYAIVEKDMPEDLKRRLADSVQRTVGPAGFWESDDNDNMETASQNGKKYQSRDSDLLSNLGFGEDVYGDAVYPGVVGKSAIGETSYRGFYRAYQAHVSSSNWAEFEHASSTWHTELTKTTDR | soluble
MAHHHHHHMVKVKTISRSHLEWTKDRNGEVPRVNRNFDTKYNPMAKQTEFTRAIRAAKLDRMFAKPFVGALSGHHDTIQSVAVDYTSLSTVVSGAFDGGIIVWDVFTKRPKAIVDAHRHSVDGLVLSTDGVACFSASRDKVVKMWDLDFPSDDSKVEPLAEYLGEFPFSSIDHHFHKSIFVTSSDAVHLWDVNRTQPLQRFSWGDDTVSCCQFNKVETELVACCMSDRGVFIYDTRTKASHSKIIMEMCCTSVAWNPMDPNTFVTGSDDRNCYLFDMRVPGRPKSVFQGHINGITSVDFCPTGKKFVAGSLDATLRMWDIHQTTKSNSIEMYHTKRMAKVFSVKWSPDSSYIYSGSEDAILRVWKADASKPVRPLRGPERSSFNYMRSLKDRYSGFVEVRRIANQRNTPKAISRAQLRGKKAEKREFVKEASRRKHDDIKPLAQRKVYQSLN | not soluble
MSLAQYPVIGIDDDEFATAKKLITKQEVRAVTLSKLRLQDDLVMWDIGAGSASVSIEASNLMPNGRIFALERNPQYLGFIRDNLKKFVARNVTLVEAFAPEGLDDLPDPDRVFIGGSGGMLEEIIDAVDRRLKSEGVIVLNAVTLDTLTKAVEFLEDHGYMVEVACVNVAKTKGLTEYKMFESHNPVYIITAWKSDEGHHHHHH | soluble
MAHHHHHHMRSVWSGCRSIVSPPLWPLRLRHSVQVGAHGGHAFGMCSRSESVVSTFAMRVSLRWHGTTTPPSASPEGSSGAVHSVLSAAGHNDEEEASSSRSFRGTVRTVRLHNMPRTWLHEEVMQFLHQVAEHAGIDPPPEATQDNGTEGNANSKEYEEEDMTSAVPNVTSPFVARMHIPFGRRTGIVCGPPIIQLTSDALAGYLLNDLNFEPDDYRSRIYFTEVVNDKYHEATKMVNKDEAALLKMEQQEALESLELDRYLMAPDLLYDIAKMRQRRLVTRRSKLLLHTFADDDRPDEGEDGKDQSEVKDDDPTNENKRVRLRRHKKSKKTLRCVGEYKELGRGSVHSVPLALPYVQGRRGV | not soluble
MAHHHHHHMEEQESAENINMIKETIFGLPNSVILKIIHNNINLKNYKIRKEAVTTLGRCLSMFILYITDGALEHCEGEKRNTIFVRDILNSLDDSLFLDIYDELKRQIAIQEEIHKKESAKEAKSAAKGDTPSGADNAQGETNQVNKQDDLDILLQALE | soluble
MAHHHHHHMCAKESCRAVNQGIRKECESCGTEKPQLLGWKCEGCSTINHAGVRKCKKCADASDKSKEFWMCAVCHENNRVDEIEDNSRCGFCGYDMAPHSVAEEEILRRATEKTVMLQQQQEHFDSVSYTEADEQFTNPLEGAEALDPSLRAIHPGSEAPITGRVLKLPAVAPFVAGGVPETRHSPLHQRRKVHPALQTVLEGATAPEGPPGFDWMCRDSSCGHINPGDEESCLKCGSHITPAEWEVPVMRVLEPPGTLALLLLQKPHSGLLDLQCVSGDDEHL | not soluble
MGSDKIHHHHHHMTMQQVLDGTATFMEHLGLNEEPLGVYYSDDKPENAFGPKTGVPISRELEESGKLDMREVMKSFTCVMGSIWLARKKHGAAFISQTEYGCPGGVYYCAMLQPHLRFIEHYVSTGFEGTPLQGERYMPDPDAMRNFILRVAPRKAPARYCIFKPLSLFSAQEKPEFIIFFARPEVLTGLFTQTVFTTGDMDCVASPFGAGCTNILGWPLYYKEKGIEKAVIGGFDPSARKFMKTDELTFTVPLSLYEKMLAALPESMFTHETDWKNVRKKVARSAKAWRVRRPGAKQPPPSTCPITY | not soluble
MSLTFKLRETIKINHKKVQRIMQWLGLKGKCKTQKYRSYQGEVGHIADNLLQRDFTATQPNEKWTTDITEFKCAEGKLYLSPIKDLFNNEIIAYDLARSPNFEQITRMMKQAVARLEGAKPILHSDQGWQYQMIGYQNILRENGIQQSMSRKGNCLYNSAMESFFGRLKTECYYGKRFETFEQLEKTIHEYIHYYNHERIQGKLKGLSPVNYRTQSLNEGHHHHHH | not soluble
MGSDKIHHHHHHMVKRKNVAVIGGGVSGLAAAKAFDERGHRVTGFERSHDFGGVWELSRSYPDVQTQSPKDLYCYTDLPMPDAYPEWPKGPQVHAYLHSYANKHNLPRLFQLNTNILSMDRRADGQPGWTLTIEAAGRVRKEDFDFVAICTGQFSDKNILTHPGQEAFVAGGGEVIHSSEYTDSEMARGKHVVVLGGSKSATDIVVNAARSGAKSVTMVYRENVWRVPYFVGGINFKRLLYMRAQEQQFNQWGKSPLQRVIAALLKPLVWANFRGLETLLKAQLGLKKWNMVPDTPIEKEASCSLPIVTPGLFESFRDGTVKPIQGTYDRYEDGHVVLTTGDRVPCDLSVLAVGWKLGIPYLAQEYRDKLIEADGQYRVYRLAVNPDLPDMGFVGFNSSFCTILSAEMIANWLVRFADGQLAHQPSAQEMNANIEMMLNWRRKERPAAQVYGGLCSAPFHFKHFDELLADMGAGVRKRANPLAEQFSYPDARAYGRFLASTPQYQAG | not soluble
LEQVNDKRISPLRPMRLRLIPLKCKTQPKKGKLSLQSVQKIYVNPRSNGTFKRVPLAGDLFKSRMRQPERDMQKNKLHDSDWQSNM | soluble
MKDSAPELNVSSSETEEDKEEAKPDGEKDPDFNQSNGGTKRQKISHQNYIAYQKQVIRRSMRHRKVRGEKALLVSANQTLKELKIQIMHAFSVAPFDQNLSIDGKILSDDCATLGTLGVIPESVILLKADEPIADYAAMDDVMQGKDEFVLGIC | not soluble
MLRVYHSNRLDVLEALMEFIVERERLDDPFEPEMILVQSTGMAQWLQMTLSQKFGIAANIDFPLPASFIWDMFVRVLPEIPKESAFNKQSMSWKLMTLLPQLLEREDFTLLRHYLTDDSDKRKLFQLSSKAADLFDQYLVYRPDWLAQWETGHLVEGLGEAQAWQAPLWKALVEYTHQLGQPRWHRANLYQRFIETLESATTCPPGLPSRVFICGISALPPVYLQALQALGKHIEIHLLFTNPCRYYWGDIKDPAYLAKLLTRQRRHSFEDRELPLFRDSENAGQLFNSDGEQDVGNPLLASWGKLGRDYIYLLSDLESSQELDAFVDVTPDNLLHNIQSDILELENRAVAGVNIEEFSRSDNKRPLDPLDSSITFHVCHSPQREVEVLHDRLLAMLEEDPTLTPRDIIVMVADIDSYSPFIQAVFGSAPADRYLPYAISDRRARQSHPVLEAFISLLSLPDSRFVSEDVLALLDVPVLAARFDITEEGLRYLRQWVNESGIRWGIDDDNVRELELPATGQHTWRFGLTRMLLGYAMESAQGEWQSVLPYDESSGLIAELVGHLASLLMQLNIWRRGLAQERPLEEWLPVCRDMLNAFFLPDAETEAAMTLIEQQWQAIIAEGLGAQYGDAVPLSLLRDELAQRLDQERISQRFLAGPVNICTLMPMRSIPFKVVCLLGMNDGVYPRQLAPLGFDLMSQKPKRGDRSRRDDDRYLFLEALISAQQKLYISYIGRSIQDNSERFPSVLVQELIDYIGQSHYLPGDEALNCDESEARVKAHLTCLHTRMPFDPQNYQPGERQSYAREWLPAASQAGKAHSEFVQPLPFTLPETVPLETLQRFWAHPVRAFFQMRLQVNFRTEDSEIPDTEPFILEGLSRYQINQQLLNALVEQDDAERLFRRFRAAGDLPYGAFGEIFWETQCQEMQQLADRVIACRQPGQSMEIDLACNGVQITGWLPQVQPDGLLRWRPSLLSVAQGMQLWLEHLVYCASGGNGESRLFLRKDGEWRFPPLAAEQALHYLSQLIEGYREGMSAPLLVLPESGGAWLKTCYDAQNDAMLDDDSTLQKARTKFLQAYEGNMMVRGEGDDIWYQRLWRQLTPETMEAIVEQSQRFLLPLFRFNQS | soluble
MAIRVIGTGFGRTGTDSMREALTILGFGPCHHMSEVMGNEDQKRLWRALAKGAAPDWNQLFAGYASCIDWPSAHYWRDLIEFYPKARVILTYRSPESWWASFEKTILAGISQSTDQESLGLALISRQVFDGRPHDRANAIAVYEANVRAVIATVPPSRLLVHNLGDGWKPLCLHLDVPLEHHHHHH | not soluble
MMKIAIIGSGISGLTCGYYLHRYHDITLFEANDYIGGHTATVDVELAGKPYAVDTGFIVYNDRTYPNFIKMMDEIGVQGKPTQMSFSVRNDANGLEYNGHTLTTLFAQKRNWLNPKFYRFIAEILRFNRLTKACVDNQLANEQTLGDFLAQHQFSEYFCENYILPMGAAIWSSSLADMRAFPLMFFARFFLNHGLLDVTNRPQWYVIPGGSRSYIAPLTQGFGDRIRLNSAVTQVKRLPSGVEVVVNGRSERFDEVIFACHSDQALAMLSDASSTEQQLLSALAYQANEVVLHTDTRLLPKRKAAWAAWNYWLKGEANQETRLPSLTYNMNILQHIEAPETFCVTLNSSEDIDPSKILRRFTYHHPVFSRPAIEAQQKKAQISGVNHTWFCGAYWHNGFHEDGVRSALDVVTQLEAYAQRSEQGAA | not soluble
